From article PMC4691890

Biological target: T1, full-length human Apaf-1 (residues 1–1248) (human), O14727
T1 chain: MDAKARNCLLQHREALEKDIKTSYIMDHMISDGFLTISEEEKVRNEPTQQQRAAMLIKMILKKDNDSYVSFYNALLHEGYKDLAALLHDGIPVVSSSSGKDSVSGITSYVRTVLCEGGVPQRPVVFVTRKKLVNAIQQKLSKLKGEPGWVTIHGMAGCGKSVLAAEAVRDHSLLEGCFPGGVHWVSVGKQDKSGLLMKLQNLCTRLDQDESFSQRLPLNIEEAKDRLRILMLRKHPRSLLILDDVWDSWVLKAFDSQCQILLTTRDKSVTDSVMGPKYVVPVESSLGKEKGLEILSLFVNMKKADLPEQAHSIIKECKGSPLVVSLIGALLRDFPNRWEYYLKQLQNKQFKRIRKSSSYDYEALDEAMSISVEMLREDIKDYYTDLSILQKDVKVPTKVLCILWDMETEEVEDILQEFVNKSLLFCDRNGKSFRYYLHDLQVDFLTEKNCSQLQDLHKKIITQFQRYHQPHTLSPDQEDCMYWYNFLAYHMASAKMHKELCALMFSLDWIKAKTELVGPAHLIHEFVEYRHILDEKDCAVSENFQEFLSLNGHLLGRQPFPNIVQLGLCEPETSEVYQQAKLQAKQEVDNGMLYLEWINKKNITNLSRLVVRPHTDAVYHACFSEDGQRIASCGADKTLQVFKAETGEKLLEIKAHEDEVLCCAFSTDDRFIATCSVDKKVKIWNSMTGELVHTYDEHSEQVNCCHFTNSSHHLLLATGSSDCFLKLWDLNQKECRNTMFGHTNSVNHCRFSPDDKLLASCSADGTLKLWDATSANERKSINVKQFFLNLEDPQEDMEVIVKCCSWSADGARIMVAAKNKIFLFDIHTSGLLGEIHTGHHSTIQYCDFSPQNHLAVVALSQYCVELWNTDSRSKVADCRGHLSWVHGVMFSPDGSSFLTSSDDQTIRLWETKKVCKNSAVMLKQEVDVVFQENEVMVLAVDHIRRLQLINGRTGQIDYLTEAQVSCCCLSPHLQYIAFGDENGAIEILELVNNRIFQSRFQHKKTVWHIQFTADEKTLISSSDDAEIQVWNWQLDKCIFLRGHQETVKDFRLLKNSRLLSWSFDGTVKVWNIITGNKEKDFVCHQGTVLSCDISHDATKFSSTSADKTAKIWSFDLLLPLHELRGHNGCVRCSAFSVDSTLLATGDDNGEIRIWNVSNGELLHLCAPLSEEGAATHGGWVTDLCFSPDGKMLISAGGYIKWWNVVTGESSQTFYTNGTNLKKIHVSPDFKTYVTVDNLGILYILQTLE
Test: cryo-EM structure; apoptosome assembled from full-length Apaf-1 with horse CytC (Sigma) at ~1:2 and 1 mM dATP; ~5 μM on grids; 3.8 Å overall, ~5 Å in the spokes after local masking
Details: remark: other sources report otherwise

stoichiometry N: 7
B1: full-length human Apaf-1 (residues 1–1248), O14727 1-1248 (natural protein)
chain: T1 chain
